# Results taken from article PMC1166539, “Determination of thermodynamic parameters of Xerocomus chrysenteron lectin interactions with N-acetylgalactosamine and Thomsen-Friedenreich antigen by isothermal titration calorimetry” (BMC Biochemistry, 2005).
# T1: XCL (XCLtag), Xerocomus chrysenteron lectin (Xerocomellus chrysenteron, UniProt Q8WZC9)
# T1 construct: recombinant, E. coli BL21(DE3); homotetramer
# T1 sequence (Q8WZC9 1-143): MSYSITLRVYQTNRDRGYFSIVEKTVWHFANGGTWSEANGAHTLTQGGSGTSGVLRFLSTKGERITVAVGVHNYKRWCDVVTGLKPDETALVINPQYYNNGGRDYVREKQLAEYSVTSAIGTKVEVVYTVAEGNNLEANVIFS
# B1: Xerocomus chrysenteron lectin with histidine tag and TEV site (natural protein, UniProt Q8WZC9 1-143, looked up)
# chain: T1 sequence (Q8WZC9 1-143)
# notes: lectin from the mushroom Xerocomus chrysenteron (XCL); expressed as a fusion of histidine tag, TEV site and XCL; The fits used the monomer concentration; also called XCL; XCLtag
# B2: fetuin from fetal bovine serum (natural protein, UniProt P12763 19-359, looked up)
# chain: IPLDPVAGYKEPACDDPDTEQAALAAVDYINKHLPRGYKHTLNQIDSVKVWPRRPTGEVYDIEIDTLETTCHVLDPTPLANCSVRQQTQHAVEGDCDIHVLKQDGQFSVLFTKCDSSPDSAEDVRKLCPDCPLLAPLNDSRVVHAVEVALATFNAESNGSYLQLVEISRAQFVPLPVSVSVEFAVAATDCIAKEVVDPTKCNLLAEKQYGFCKGSVIQKALGGEDVRVTCTLFQTQPVIPQPQPDGAEAEAPSAVPDAAGPTPSAAGPPVASVVVGPSVVAVPLPLHRAHYDLRHTFSGVASVESSSGEAFHVGKTPIVGQPSIPGGPVRLCPGRIRYFKI
# modifications: three carbohydrate units O-linked to Thr or Ser residues and three complex glycans N-linked to Asn residues (a fourth O-linked residue may exist); exposed Gal residues linked to sialic acid residues
# notes: fetuin (fetuin-A, alpha-2-HS-glycoprotein), bovine, from fetal bovine serum; glycoprotein bearing the Thomsen-Friedenreich antigen motif; also called native fetuin; source: bought: Sigma (from fetal bovine serum)
# B3: asialofetuin from fetal bovine serum (natural protein, UniProt P12763 19-359, looked up)
# chain: B2 chain
# modifications: O-linked and N-linked glycans as in fetuin, but the sialic acid residues are absent
# notes: fetuin (fetuin-A, alpha-2-HS-glycoprotein), bovine, from fetal bovine serum, without sialic acids (asialofetuin); Same polypeptide as fetuin; it differs only in lacking sialic acid on the glycans; source: bought: Sigma (from fetal bovine serum)
# Tests used:
# [1] = target: T1, XCL (XCLtag), Xerocomus chrysenteron lectin; test: isothermal titration calorimetry; format: binding; conditions: 25 mM sodium phosphate pH 7, 27°C
# [2] = target: B3; test: ITC; 2 mM fetuin or asialofetuin titrated (38 injections of 5 ul) into 0.25 mM XCLtag in the cell; 27°C; 25 mM Na2HPO4/NaH2PO4, pH 7; XCL monomer concentration used in the fit; conditions: both partners purified
# [3] = target: B2; test: as above; conditions: both partners purified
# [4] = target: B1; test: as above; conditions: both partners purified
# [5] = target: B1; test: as above; conditions: both partners purified; remark: listed apart in the source
Molecule,stoichiometry N [4],dH [5] [kcal/mol],further results
CC(=O)N[C@H]1C(O)O[C@H](CO)[C@H](O)[C@@H]1O (some centres unmarked) [N-acetylgalactosamine],,,"Ka, M^-1 ([1]; no PEG, per monomer, abstract prints Kd 5.2 μM, inconsistent with this Ka (reciprocal 5.2 mM)): 192 ± 5"
CC(=O)N[C@H]1C(O)O[C@H](CO)[C@@H](O[C@@H]2O[C@H](CO)[C@H](O)[C@H](O)[C@H]2O)[C@@H]1O (some centres unmarked) [N-acetyllactosamine],,,"Kd ([1]; significant fitting errors stated for Ka below 100 M^-1, read-out: affinity constant (converted)): ~20 mM"
B1,,,Ka [2]: 2.59e+06 ± 0.6 M⁻¹; Ka [3]: 590000 ± 1.4 M⁻¹
B2,0.23,-21.5 ± 0.5,
B3,0.23,-16.8 ± 2.5,
